In paper PMC4742067 (PLoS ONE, 2016):
Each block holds one molecule with its values, some of them ahead of it.

Key:
[1] = biological target: bradykinin B1 receptor (Homo sapiens) (UniProt P46663); assay: radioligand binding; details: cited from earlier work
[2] = biological target: T1, human B1R C-terminally tagged with FLAG (hB1R-FLAG) (human, UniProt P46663 1-353); assay: radioligand binding; competition of unlabeled pure peptides with 1 nM [^3H]Lys-des-Arg^9-BK on intact, adherent HEK 293a cells (24-well plates) transiently expressing hB1R-FLAG; one-site competition fit (series of Fig 2 and the Lys-des-Arg^9-BK curve of Fig 7); details: one partner purified
T1 construct: also called human B1R-FLAG; bradykinin B1 receptor; not shown: FLAG, C-terminal, kept
T1 sequence (looked up): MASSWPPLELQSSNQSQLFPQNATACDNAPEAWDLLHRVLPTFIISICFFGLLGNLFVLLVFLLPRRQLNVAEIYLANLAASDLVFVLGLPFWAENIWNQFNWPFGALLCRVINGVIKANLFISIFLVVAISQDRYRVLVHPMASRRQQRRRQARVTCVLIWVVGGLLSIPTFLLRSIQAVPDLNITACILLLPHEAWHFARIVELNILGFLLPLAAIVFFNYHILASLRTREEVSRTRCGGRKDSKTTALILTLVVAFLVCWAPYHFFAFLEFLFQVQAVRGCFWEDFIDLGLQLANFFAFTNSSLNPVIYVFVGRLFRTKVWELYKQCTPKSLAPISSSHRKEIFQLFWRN

[3] = biological target: T1, human B1R C-terminally tagged with FLAG …; assay: radioligand binding; competition of dilutions of a producer-cell lysate of known EGFP-S4-P1 concentration (GFP ELISA) with 1 nM [^3H]Lys-des-Arg^9-BK (bought radioligand) on intact HEK 293a cells expressing hB1R-FLAG; Ki by the Cheng-Prusoff correction; details: partners not purified

Molecule: Lys-des-Arg9-bradykinin (from UniProt P01042)
Kd [1]: 0.35 nM

IC50 [2]: 75.1 nM
B1: synthetic S3-P1 (peptide)
peptide: NGNGNGNGNGKRPPGFSPF
notes: also called (Asn-Gly)5-Lys-des-Arg^9-BK

IC50 [2]: 663 nM
B2: synthetic S3-P2 (peptide)
chain: NGNGNGNGNGKRPPGFSPL

IC50 [3]: 25.5 nM | Ki [3]: 6.6 nM
B3: EGFP-S4-P1 (EGFP-(NG)15-Lys-des-Arg^9-BK) (ligand)
chain: NGNGNGNGNGNGNGNGNGNGNGNGNGNGNGKRPPGFSPF
notes: also called EGFP-(Asn-Gly)15-Lys-des-Arg^9-BK
